Results reported in patent US11584772B2, “N4-modified cytidine nucleotides and their use” (VILNIUS UNIVERSITY, priority 2017, dated 2023).

B1: EST: recombinant protein selected from metagenomic library, polyhystidine-tag at the N-terminus; amidase and esterase (protein)
chain: MSSLFIGQVFAKTPEVQTSDLTGNTTCSNLVGMVIPADEIGLPTSGATITSATLKIVEDGAIKDAEYCEVLGAIHPVDPTAPDINFQVNLPTNWNKKFLQFGGGYFNGTVRTGLGNPPAGDRKLGKNTPLAQGYVTFGSDSGNSTAPLDASFGMNDEALKNFAGDQLKKTKDVALALANVRYNAVPDQVYFAGGSEGGREGLFIVQNFPDEYDGVISVYPVLNWIPKALKDNRDAQALYKNDGEGWISPEENDLINETVFKACDSLDGVKDGIISNTSECAEKEDKILDTLSESLSEKQIEVIKSFNGPMEFDIQLANDFTTMPGYSQLQGADIGRLFGTRPIPGVPPVVSESVGHVIDEQDALMGVYSDQVIRYKITRNPDFNTLTFDPNEYREEILKASNLLDVTDPNISEFRENGGKLILVHGTEDEMVAPQGTSDYYSKLVNEFGQESLDEFAQYYLVPGFSHGGGNFTMSANLLGALDAWVVNGDVPSNLVAEDQNSATFGRTRPLCEYPTYPQYNGSGDVNSAASFTCLKADKDKDISASDIQKLIEKFEVDGEFANHGTARSLQAHLDILIKLESQERETVDQIVKHTQKFIKLLDNHKKNGKITDHAYNTLKELAESYIKQIK
modifications: N-terminal His tag; Metagenomic origin
notes: recombinant protein selected from metagenomic library, polyhystidine-tag at the N-terminus; amidase and esterase
B2: D6: recombinant protein selected from metagenomic library, polyhystidine-tag at the N-terminus; amidase and esterase (protein)
chain: MEQLKFQKNWNNKCSCDFFTTIRLKGPKYTVGKELEMRIYKGGVFQNHGMIRVASLRPIQLHQINEWISRLDSGLSPEELRSELFYMYKDKVADVNKVDFYLILCERVKSKPIQNALFSTESTPAHD
modifications: N-terminal His tag; Metagenomic origin
notes: as for B1
B3: YqfB: recombinant protein selected from metagenomic library, polyhystidine-tag at the N-terminus; amidase and esterase (protein, listed as Escherichia coli)
chain: MQPNDITFFQRFQDDILAGRKTITIRDESESHFKTGDVLRVGRFEDDGYFCTIEVTATSTVTLDTLTEKHAEQENMTLTELKKVIADIYPGQTQFYVIEFKCL
modifications: N-terminal His tag
notes: as for B1

Legend:
[1] = cited from earlier work
[2] = tested on: platelets and neutrophils; details: cited from earlier work
[3] = mice; cited from earlier work
[4] = target: NLRC4 inflammasome (Homo sapiens, UniProt Q9NPP4); details: cited from earlier work
[5] = esterase activity of purified recombinant proteins; assay type: biochemical; details: purified His-tagged recombinant protein
Source text: (§1) Then recombinant proteins (EST, D6 and YqfB) having polyhystidine-tag at the N-terminus were purified by affinity chromatography, enzymatic activities of each protein were estimated.

[6] = hydrolysis of the amide bond of modified dCTP by purified recombinant proteins (amidase activity); assay type: biochemical; details: purified His-tagged recombinant protein, 37° C., various buffer solutions
Method: as §1
All three selected proteins are able to hydrolyse the amide bond of N^4-modified cytidine nucleotide. The hydrolysis reaction proceeds in various buffer solutions at 37° C. Depending on the concentration of purified protein enzymatic reaction lasts from several minutes to several hours. […] Moreover, these proteins are capable of hydrolysing not only the amide bond of modified dCTP but also the amide bond of modified cytidine.

Chain of NLRC4 inflammasome (Q9NPP4 whole entry): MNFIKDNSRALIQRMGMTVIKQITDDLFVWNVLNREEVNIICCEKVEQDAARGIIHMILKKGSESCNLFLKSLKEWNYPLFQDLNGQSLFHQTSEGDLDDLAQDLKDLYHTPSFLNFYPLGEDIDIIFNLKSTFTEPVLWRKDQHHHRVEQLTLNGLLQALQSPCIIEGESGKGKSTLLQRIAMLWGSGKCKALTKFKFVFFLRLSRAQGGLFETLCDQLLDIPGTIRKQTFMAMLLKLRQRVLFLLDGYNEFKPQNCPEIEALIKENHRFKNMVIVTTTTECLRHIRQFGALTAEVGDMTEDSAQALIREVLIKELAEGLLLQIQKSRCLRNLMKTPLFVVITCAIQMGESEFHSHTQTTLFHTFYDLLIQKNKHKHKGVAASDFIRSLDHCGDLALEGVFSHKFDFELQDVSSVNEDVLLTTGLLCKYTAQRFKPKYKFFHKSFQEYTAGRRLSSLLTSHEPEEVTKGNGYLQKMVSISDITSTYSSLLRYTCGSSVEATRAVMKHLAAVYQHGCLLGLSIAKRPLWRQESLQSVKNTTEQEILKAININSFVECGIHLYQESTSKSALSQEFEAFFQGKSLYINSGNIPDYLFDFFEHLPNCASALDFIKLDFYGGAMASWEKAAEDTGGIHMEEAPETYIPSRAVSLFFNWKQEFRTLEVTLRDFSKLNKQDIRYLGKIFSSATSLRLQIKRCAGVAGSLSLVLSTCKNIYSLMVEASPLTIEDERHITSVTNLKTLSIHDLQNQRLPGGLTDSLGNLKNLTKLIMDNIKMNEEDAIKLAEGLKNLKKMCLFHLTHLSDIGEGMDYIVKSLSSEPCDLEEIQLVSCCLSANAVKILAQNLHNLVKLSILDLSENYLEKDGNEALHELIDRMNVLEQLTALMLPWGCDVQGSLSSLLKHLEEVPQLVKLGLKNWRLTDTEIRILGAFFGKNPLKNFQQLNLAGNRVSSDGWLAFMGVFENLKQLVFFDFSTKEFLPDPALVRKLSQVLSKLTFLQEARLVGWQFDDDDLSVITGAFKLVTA

| Molecule | production of IL-1μ [1] | activation of platelets and neutrophils [2] | blood pressure [3] | activation of the NLRC4 inflammasome [4] | esterase activity [5] | hydrolysis of the amide bond of modified dCTP (activity of amidase) [6] |
| --- | --- | --- | --- | --- | --- | --- |
| CC(=O)Nc1ccn([C@@H]2O[C@H](CO)[C@@H](O)[C@H]2O)c(=O)n1 [N^4-acetyl-cytidine] | induces the production of IL-1μ | activates platelets and neutrophils | elevates blood pressure in mice | activates the NLRC4 inflammasome |  |  |
| B1 |  |  |  |  | behave as esterases | hydrolyse the amide bond of modified dCTP |
| B2 |  |  |  |  | behave as esterases | hydrolyse the amide bond of modified dCTP |
| B3 |  |  |  |  | behave as esterases | hydrolyse the amide bond of modified dCTP |
